US20240342214A1 (MEDIZINISCHE HOCHSCHULE HANNOVER, published 2024)

T1: human ENTPD3 (Ectonucleoside triphosphate diphosphohydrolase 3) expressed on cells (human, UniProt O75355 1-529)
T1 sequence: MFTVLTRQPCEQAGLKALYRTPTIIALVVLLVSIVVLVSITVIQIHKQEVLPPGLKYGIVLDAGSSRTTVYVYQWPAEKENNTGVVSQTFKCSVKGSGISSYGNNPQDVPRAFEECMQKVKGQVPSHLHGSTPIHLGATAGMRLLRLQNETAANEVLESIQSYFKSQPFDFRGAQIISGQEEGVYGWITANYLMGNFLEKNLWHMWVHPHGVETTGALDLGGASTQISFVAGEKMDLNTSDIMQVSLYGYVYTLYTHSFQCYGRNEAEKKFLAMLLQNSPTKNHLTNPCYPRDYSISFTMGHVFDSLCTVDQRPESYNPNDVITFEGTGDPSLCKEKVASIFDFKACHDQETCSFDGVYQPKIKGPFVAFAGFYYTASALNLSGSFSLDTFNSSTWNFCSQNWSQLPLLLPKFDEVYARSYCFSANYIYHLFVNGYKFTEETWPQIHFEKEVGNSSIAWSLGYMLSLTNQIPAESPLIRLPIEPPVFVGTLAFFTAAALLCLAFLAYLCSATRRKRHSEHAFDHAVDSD

T2: murine ENTPD3 expressed on HEK293T cells (mouse, UniProt Q8BFW6 1-529)
T2 construct: Transiently transfected HEK293T cells (vector with eGFP behind a P2A site); also called mENTPD3; mouse ENTPD3
T2 sequence: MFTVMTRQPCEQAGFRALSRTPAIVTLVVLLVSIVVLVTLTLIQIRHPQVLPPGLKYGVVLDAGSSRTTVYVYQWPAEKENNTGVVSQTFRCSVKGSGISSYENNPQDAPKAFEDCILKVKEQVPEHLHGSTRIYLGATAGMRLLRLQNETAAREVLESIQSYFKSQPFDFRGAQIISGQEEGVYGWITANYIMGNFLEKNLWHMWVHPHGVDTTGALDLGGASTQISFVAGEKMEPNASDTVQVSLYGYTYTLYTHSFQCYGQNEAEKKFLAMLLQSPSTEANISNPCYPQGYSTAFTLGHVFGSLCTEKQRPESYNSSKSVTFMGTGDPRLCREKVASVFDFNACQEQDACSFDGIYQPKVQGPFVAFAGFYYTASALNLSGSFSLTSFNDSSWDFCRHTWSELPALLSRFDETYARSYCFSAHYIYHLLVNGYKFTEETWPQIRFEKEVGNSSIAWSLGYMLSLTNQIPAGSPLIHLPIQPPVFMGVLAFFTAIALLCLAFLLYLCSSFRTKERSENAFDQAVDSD

B1: CAR 2-CD8 (antigen binding domain from binder B2, CD8 hinge) (other)
chain: QVQLVQSGGGVVQPGRSLRLSCAASGFTFSSYAMSWVRQAPGKGLEWVSAISGSGGNTNYADSVKGRFTISRDNSKNTLYLQMNSLRAEDTAVYYCAKGGSTSSGYRFDYWGQGTLVTVSSGGGGSGGGGSGGGGSQLVLTQSPSASASLGASVKLTCTLSSGHSNYAIAWHQQQPEKGPRFLMNVNRDGSYTKGDGIPDRFSGSSSGAERYLTISSLQSDDEADYYCQTWGTGVQVFGGGTKLTVLTRFVPVFLPAKPTTTPAPRPPTPAPTIASQPLSLRPEACRPAAGGAVHTRGLDFACDIYIWAPLAGTCGVLLLSLVITLYCNHRPPALEWVRSKRSRLLHSDYMNMTPRRPGPTRKHYQPYAPPRDFAAYRSASCTRVKFSRSADAPAYQQGQNQLYNELNLGRREEYDVLDKRRGRDPEMGGKPRRKNPQEGLYNELQKDKMAEAYSEIGMKGERRRGKGHDGLYQGLSTATKDTYDALHMQALPPR
B2: hg012-C1 scFv (scFv)
scFv: QVQLVQSGAEVKKPGESLKISCKGSGYSFTSYWIGWVRQMPGKGLEWMGIIYPGDSGTRYSPSFQGQVTISADKSISTAYLQWSSLKASNTAMYYCARQQGAGAFDIWGQGTMVTVSSGSASAPKLEEGEFSEARVQSALTQPPSASGSPGQSVTISCTGTSRDVGGYNYVSWYQQHPGKAPKLILYEVTKRPSGVPDRFSGSKSGNTASLTISGLQAEDEADYYCSSYTSSSTVVFGGGTKLTVLGQPKAAPSVTLFPPSSAAAGSEQKLISEEDLSHHHHHH
notes: Soluble scFv made in E. coli, with Myc tag and His tag
B3: hg012-C8 scFv (scFv)
scFv: QVTLKESGGGLVQPGRSLRLSCAASGFTFDDYAMHWVRQAPGKGLEWVSGISWNSGSIGYADSVKGRFTISRDNAKNSLYLQMNSLRAEDTALYYCAKGANYDILTGYRKDNWFDPWGQGTLVTVSSGSASAPKLEEGEFSEARVDIVMTQTPSTLSASVGDRVTITCRASQTISNWLAWYQQKPGKAPKLLIYKASTLESGVPSRFSGTGSGTEFTLTISSLQPDDFATYFCQQYHSYSRTFGQGTKVDVARTVAAPSVAAAGSEQKLISEEDLSHHHHHH
notes: as for B2
B4: hg012-F10 scFv (scFv)
scFv: QMQLVQSGGGVVQPGRSLRLSCAASGFTFSSYGMHWVRQAPGKGLERVAVISYDGSNKYYADSVKGRFTISRDNSKNTLYLQMNSLRAEDTALYYCAKDHHPYGSSDSFDYWGQGTLVTVSSGSASAPKLEEGEFSEARVQAVVTQEPSLTVSPGGTVTLTCGSSTGAVTRGHYPYWLQQKPGQAPRTLIYDTVKKHSWTPARFSGSLVGGKAALTLSGAQPEDEADYYCLLSFIDTRYPARYVFGTGTKVTVLGQPKANPTVTLFPPSSAAAGSEQKLISEEDLSHHHHHH
notes: as for B2
B5: hg012-C6 scFv (scFv)
scFv: EVQLVQSGGGLVQPGRSLRLSCTASGFTFGDYAMSWVRQAPGKGLEWVGFIRSKAYGGTTEYAASVKGRFTISRDDSKSIAYLQMNSLKTEDTAVYYCTRVPVVAGWYNWFDPWGQGTLVTVSSGSASAPKLEEGEFSEARVQSVLTQPPSASGTPGQRVTISCSGSSSNIGSNYVYWYQQLPGTAPKLLIYRNNQRPSGVPDRFSGSKSGNTASLTVSGLQAGDEADYYCSSYAGSNNVVFGGGTKLAVLGQPKAAPSVTLFPPSSAAAGSEQKLISEEDLSHHHHHH
notes: as for B2
B6: hg012-D3 scFv (scFv)
scFv: QVQLVQSGGGLVQPGRSLRLSCAASGFTFDDYAMHWVRQAPGKGLEWVSGISWNSGSIGYADSVKGRFTISRDNAKNSLYLQMNSLRAEDTALYYCAKGANYDILTGYEYWGQGTLVTVSSGSASAPKLEEGEFSEARVQAVVTQEPSLTVSPGETVTLTCGSSTGAVTSDHHPYWFQQKPGQVPRTLMHDTSTRYSWTPARFSGSIVGGKAALTLSGAQPEDEAEYHCFLYYSGTAIFGGGTKLTVLSQPKAAPSVTLFPPSSAAAGSEQKLISEEDLSHHHHHH
notes: as for B2
B7: hg012-B7 scFv (scFv)
scFv: QVQLQQSGAEVKKPGASVKVSCKASGYTFTSYAMHWVRQAPGQRLEWMGWINAGNGNTKYSQKLQGRVTITRDTSASTAYMELSSLRSEDTAVYYCARDSGYDLFDYWGQGTLVTVSSGSASAPKLEEGEFSEARVQAVVTQEPSFSVSPGGTVTLTCGLTSGSVSTTYYPSWYQQTPGQTPRTLIYKTNLRSPGVPDRFSGSILGNKAALTITGAQADDDSDYYCLLYMGSGVWVFGGGTRLTVLGQPKAAPSVTLFPPSSAAAGSEQKLISEEDLSHHHHHH
notes: as for B2
B8: hg012-E4 scFv (scFv)
scFv: QVTLKESGGGLVQPGRSLRLSCAASGFTFDDYAMHWVRQAPGKGLEWVSGISWNSGSIGYADSVKGRFTISRDNAKNSLYLQMNSLRAEDTALYYCAKGANYDILTGYRKDNWFDPWGQGTLVTVSSGSASAPKLEEGEFSEARVDIVMTQSPATLSLSPGERATLSCRASQSVGSSLAWFQQKPGQAPRLLIYDASNRATGIPARFSGSGSGTDFTLTISSLEPEDFAVYYCQQRSNWPPYTFGQGTKLEIKRTVAAPSVAAAGSEQKLISEEDLSHHHHHH
notes: as for B2
B9: hg012-A8 scFv (scFv)
scFv: QVTLKESGGGLVQPGRSLRLSCAASGFTFDDYAMHWVRQAPGKGLEWVSGISWNSGSIGYADSVKGRFTISRDNAKNSLYLQMNSLRAEDTALYYCAKGANYDILTGYRKDNWFDPWGQGTLVTVSSGSASAPKLEEGEFSEARVLPVLTQPPSASGTPGQKVTISCSGSSSNIGSNYVFWYEQLPGAAPKLLMYSSNQRPSGVPDRFSGSKSGTSASLAISGLRSEDEADYYCAAWDDSLSGWVFGGGTKLTVLGQPKAAPSVTLFPPSSAAAGSEQKLISEEDLSHHHHHH
notes: as for B2

Each binder was assayed against T1, human ENTPD3 (Ectonucleoside …) (assay: cell-based or functional assay).

Fold Change in IFN-γ secretion (hIsMT/T cell co-culture 48 hrs) | Fold Change in IFN-γ secretion (hIsMT/T cell co-culture 72 hrs) | Binder
269 fold, relative to the mock CD8 T cells condition | 294 fold, relative to the mock CD8 T cells condition | B1

These binders were tested against T2, murine ENTPD3 expressed on HEK293T cells (assay: flow cytometry; soluble scFv on transfected HEK293T cells; anti-His PE).
Description: (§1) scFv binders initially obtained by phage display cell panning were screened first for recognition of ENTPD3 expressed on cells. Therefore, soluble scFv were produced in E. coli and used to stain HEK293T cells transiently transfected with a vector expressing the recombinant protein and eGFP downstream separated by a P2A site. Secondary staining was performed by PE staining the His-Tag of soluble scFv. Cells were measured in flow cytometry for GFP (antigen expression) and PE (scFv binding).

binding result | Binder
no binding | B2
no binding | B3
no binding | B4
no binding | B5
no binding | B6
no binding | B7
no binding | B8
no binding | B9

These binders were tested against T1, human ENTPD3 (Ectonucleoside …) in the same assay as above.
Description: as §1

binding result | Binder
binds | B2
binds | B3
binds | B5
binds | B6
binds | B7
binds | B8

Biological target: T1, human ENTPD3 (Ectonucleoside …)
Assay: cell-based or functional assay
Remark: another data set of the same source

Fold Change in TNF-α secretion (hIsMT/T cell co-culture 48 hrs) | Fold Change in TNF-α secretion (hIsMT/T cell co-culture 72 hrs) | Binder
521 fold, relative to the mock CD8 T cells condition | 568 fold, relative to the mock CD8 T cells condition | B1
